Source: the supplement of paper PMC10724198
± gives the standard deviation of the averaged measurements.

What was measured:
[1] = system: Saccharomyces cerevisiae; assay: protein stability index of tFT-peptide fusion (C-terminal peptide) (PSI (0-1 scale)); higher = more stable (slower turnover)
Description: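 MPS profiling in S. cerevisiae of the tFT-X12 degron library: putative degron peptides plus stable controls, 12 aa, fused to the C-terminus of a sfGFP-mCherry timer. Cells are FACS-sorted into 8 mCherry/sfGFP bins and deep-sequenced. PSI runs from 0 (unstable) to 1 (stable). Backgrounds are wild type, das1Δ and doa10Δ at 30 °C, and wild type, das1Δ, cdc34-1 and cdc53-1 at 37 °C; 2-3 technical replicates each.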

[2] = system: Saccharomyces cerevisiae; assay: as above; conditions: genetic background: wild type; temperature: 30 C
[3] = genetic background: cdc34-1, temperature: 37 C
[4] = genetic background: cdc53-1, temperature: 37 C
[5] = genetic background: das1 deletion, temperature: 30 C
[6] = genetic background: das1 deletion, temperature: 37 C
[7] = genetic background: doa10 deletion, temperature: 30 C
[8] = genetic background: wild type, temperature: 30 C
[9] = genetic background: wild type, temperature: 37 C
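Note: PSI is a weighted mean of sequencing reads over stability bins, variants kept only with over 10 reads, mCherry proximal and sfGFP distal, peptide attached via GGGS linker.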

GFVVYLLLSYLF
protein stability index [1, 3]: 0.34 ± 0.016 | protein stability index [1, 4]: 0.413 ± 0.035 | protein stability index [1, 5]: 0.279 ± 0.039 | protein stability index [1, 6]: 0.482 ± 0.016 | protein stability index [1, 7]: 0.256 ± 0.0032 | protein stability index [1, 8]: 0.28 ± 0.019 | protein stability index [1, 9]: 0.437 ± 0.024 | protein stability index [2]: 0.333 ± 0.091

VLVVLRSEVSLS
protein stability index [1, 3]: 0.286 ± 0.0038 | protein stability index [1, 4]: 0.398 ± 0.022 | protein stability index [1, 5]: 0.227 ± 0.027 | protein stability index [1, 6]: 0.3847 ± 0.0022 | protein stability index [1, 7]: 0.1948 ± 0.0011 | protein stability index [1, 8]: 0.22 ± 0.02 | protein stability index [1, 9]: 0.371 ± 0.0053 | protein stability index [2]: 0.284 ± 0.015

LFIRSFLFFSHF
protein stability index [1, 3]: 0.353 ± 0.0079 | protein stability index [1, 4]: 0.3482 ± 0.00057 | protein stability index [1, 5]: 0.498 ± 0.019 | protein stability index [1, 6]: 0.581 ± 0.016 | protein stability index [1, 7]: 0.248 ± 0.026 | protein stability index [1, 8]: 0.184 ± 0.025 | protein stability index [1, 9]: 0.307 ± 0.082 | protein stability index [2]: 0.27 ± 0.0052

NAGSHHAAVKLG
protein stability index [1, 3]: 0.664 ± 0.064 | protein stability index [1, 4]: 0.74 ± 0.027 | protein stability index [1, 5]: 0.6411 ± 0.0016 | protein stability index [1, 6]: 0.7163 ± 0.001 | protein stability index [1, 7]: 0.222 ± 0.018 | protein stability index [1, 8]: 0.266 ± 0.023 | protein stability index [1, 9]: 0.502 ± 0.012 | protein stability index [2]: 0.399 ± 0.06

GTIFLIRVLLFG
protein stability index [1, 3]: 0.154 ± 0.0049 | protein stability index [1, 4]: 0.284 ± 0.026 | protein stability index [1, 5]: 0.222 ± 0.024 | protein stability index [1, 6]: 0.387 ± 0.029 | protein stability index [1, 7]: 0.171 ± 0.015 | protein stability index [1, 8]: 0.213 ± 0.023 | protein stability index [1, 9]: 0.357 ± 0.069 | protein stability index [2]: 0.284 ± 0.028

CEVLVVVMCLWG
protein stability index [1, 3]: 0.199 ± 0.0023 | protein stability index [1, 4]: 0.295 ± 0.043 | protein stability index [1, 5]: 0.224 ± 0.029 | protein stability index [1, 6]: 0.3738 ± 0.0025 | protein stability index [1, 7]: 0.196 ± 0.006 | protein stability index [1, 8]: 0.217 ± 0.025 | protein stability index [1, 9]: 0.32342 ± 4.2e-05 | protein stability index [2]: 0.285 ± 0.024

LRMMLLVTIILE
protein stability index [1, 3]: 0.0571 ± 0.0011 | protein stability index [1, 4]: 0.115 ± 0.0084 | protein stability index [1, 5]: 0.107 ± 0.028 | protein stability index [1, 6]: 0.216 ± 0.0072 | protein stability index [1, 7]: 0.0875 ± 0.023 | protein stability index [1, 8]: 0.0921 ± 0.025 | protein stability index [1, 9]: 0.198 ± 0.026 | protein stability index [2]: 0.188 ± 0.037

SRICRTIIQLKQ
protein stability index [1, 3]: 0.561 ± 0.025 | protein stability index [1, 4]: 0.681 ± 0.013 | protein stability index [1, 5]: 0.626 ± 0.029 | protein stability index [1, 6]: 0.689 ± 0.033 | protein stability index [1, 7]: 0.107 ± 0.0018 | protein stability index [1, 8]: 0.121 ± 0.022 | protein stability index [1, 9]: 0.266 ± 0.004 | protein stability index [2]: 0.168 ± 0.0027

AAFLGVLCWCWG
protein stability index [1, 3]: 0.436 ± 0.039 | protein stability index [1, 4]: 0.465 ± 0.0079 | protein stability index [1, 5]: 0.363 ± 0.033 | protein stability index [1, 6]: 0.486 ± 0.0051 | protein stability index [1, 7]: 0.323 ± 0.0063 | protein stability index [1, 8]: 0.351 ± 0.019 | protein stability index [1, 9]: 0.4703 ± 0.00083 | protein stability index [2]: 0.433 ± 0.011

RNFSFTVICLAM
protein stability index [1, 3]: 0.48 ± 0.037 | protein stability index [1, 4]: 0.62 ± 0.05 | protein stability index [1, 5]: 0.485 ± 0.057 | protein stability index [1, 6]: 0.549 ± 0.0093 | protein stability index [1, 7]: 0.472 ± 0.026 | protein stability index [1, 8]: 0.474 ± 0.023 | protein stability index [1, 9]: 0.514 ± 0.019 | protein stability index [2]: 0.511 ± 0.11

SWVSVLSELLAC
protein stability index [1, 3]: 0.224 ± 0.014 | protein stability index [1, 4]: 0.249 ± 0.017 | protein stability index [1, 5]: 0.251 ± 0.045 | protein stability index [1, 6]: 0.362 ± 0.0082 | protein stability index [1, 7]: 0.204 ± 0.0092 | protein stability index [1, 8]: 0.238 ± 0.025 | protein stability index [1, 9]: 0.2873 ± 0.0022 | protein stability index [2]: 0.336 ± 0.022

GFFCFLYFVVMF
protein stability index [1, 3]: 0.148 ± 0.0033 | protein stability index [1, 4]: 0.1695 ± 0.0013 | protein stability index [1, 5]: 0.18 ± 0.026 | protein stability index [1, 6]: 0.296 ± 0.013 | protein stability index [1, 7]: 0.2127 ± 0.0014 | protein stability index [1, 8]: 0.187 ± 0.018 | protein stability index [1, 9]: 0.277 ± 0.0028 | protein stability index [2]: 0.226 ± 0.021

CVIVCVLVWGRA
protein stability index [1, 3]: 0.156 ± 0.025 | protein stability index [1, 4]: 0.269 ± 0.062 | protein stability index [1, 5]: 0.17 ± 0.046 | protein stability index [1, 6]: 0.329 ± 0.0095 | protein stability index [1, 7]: 0.152 ± 0.0045 | protein stability index [1, 8]: 0.172 ± 0.026 | protein stability index [1, 9]: 0.326 ± 0.013 | protein stability index [2]: 0.24 ± 0.011

RRQQNHRQLCAT
protein stability index [1, 3]: 0.65 ± 0.092 | protein stability index [1, 4]: 0.708 ± 0.029 | protein stability index [1, 5]: 0.642 ± 0.028 | protein stability index [1, 6]: 0.7322 ± 0.0065 | protein stability index [1, 7]: 0.21 ± 0.018 | protein stability index [1, 8]: 0.259 ± 0.038 | protein stability index [1, 9]: 0.518 ± 0.038 | protein stability index [2]: 0.401 ± 0.016

FFCCVLFSIVVY
protein stability index [1, 3]: 0.0536 ± 0.029 | protein stability index [1, 4]: 0.0863 ± 0.019 | protein stability index [1, 5]: 0.129 ± 0.026 | protein stability index [1, 6]: 0.167 ± 0.002 | protein stability index [1, 7]: 0.103 ± 0.0065 | protein stability index [1, 8]: 0.104 ± 0.028 | protein stability index [1, 9]: 0.114 ± 0.024 | protein stability index [2]: 0.171 ± 0.0089

FPSCYIWEVEVM
protein stability index [1, 3]: 0.403 ± 0.049 | protein stability index [1, 4]: 0.403 ± 0.021 | protein stability index [1, 5]: 0.32 ± 0.039 | protein stability index [1, 6]: 0.484 ± 0.038 | protein stability index [1, 7]: 0.268 ± 0.0021 | protein stability index [1, 8]: 0.333 ± 0.023 | protein stability index [1, 9]: 0.436 ± 0.0047 | protein stability index [2]: 0.442 ± 0.037

FLFWVLLVGCSF
protein stability index [1, 3]: 0.244 ± 0.0058 | protein stability index [1, 4]: 0.299 ± 0.012 | protein stability index [1, 5]: 0.245 ± 0.035 | protein stability index [1, 6]: 0.3748 ± 0.0029 | protein stability index [1, 7]: 0.206 ± 0.015 | protein stability index [1, 8]: 0.206 ± 0.021 | protein stability index [1, 9]: 0.334 ± 0.013 | protein stability index [2]: 0.304 ± 0.028

GVVCCGFFFLVV
protein stability index [1, 3]: 0.475 ± 0.012 | protein stability index [1, 4]: 0.525 ± 0.028 | protein stability index [1, 5]: 0.401 ± 0.024 | protein stability index [1, 6]: 0.57 ± 0.018 | protein stability index [1, 7]: 0.363 ± 0.0058 | protein stability index [1, 8]: 0.41 ± 0.04 | protein stability index [1, 9]: 0.528 ± 0.055 | protein stability index [2]: 0.464 ± 0.016

WRVRFRLLAGFC
protein stability index [1, 3]: 0.347 ± 0.038 | protein stability index [1, 4]: 0.4126 ± 0.0035 | protein stability index [1, 5]: 0.296 ± 0.021 | protein stability index [1, 6]: 0.421 ± 0.0046 | protein stability index [1, 7]: 0.073 ± 0.016 | protein stability index [1, 8]: 0.107 ± 0.027 | protein stability index [1, 9]: 0.206 ± 0.016 | protein stability index [2]: 0.173 ± 0.018
